Measured values reported in the supplement of paper PMC7125110.
± gives the standard error. Fewer inactive variants are shown than the library holds.

B1: glmS ribozyme (parent)
chain: AUAAAAGCGCCAGAACUACAGAAAUGUAGUUGACGAGGAGGAGGUUUAUCGAAUUUUCGGCGGAUGCCUCCAAA

Legend:
Details in all cases: with glucosamine-6-phosphate
glucosamine-6-phosphate [1] = variants of: B1; assay: self-cleavage kobs at 160 uM GlcN6P; higher = faster cleavage; RNA array
Summary of the method: (§1)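 Weighted Michaelis–Menten fits across concentrations supplied kcat and KM, based on kobs from one- or two-exponential decay fits to normalised per-tile medians. The data came from barcoded ribozyme variants transcribed in situ by E. coli RNA polymerase on sequenced MiSeq chips and tracked at 37 °C by a hybridised Cy3 probe. Glucosamine-6-phosphate (40 μM to 10 mM) in HEPES/KCl/Mg(OAc)2 buffer was flowed in.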

glucosamine-6-phosphate [2] = variants of: B1; assay: self-cleavage kobs at 640 uM GlcN6P; higher = faster cleavage; RNA array
Summary of the method: as §1

glucosamine-6-phosphate [3] = variants of: B1; assay: self-cleavage kobs at 40 uM GlcN6P; higher = faster cleavage; RNA array
Summary of the method: as §1

glucosamine-6-phosphate [4] = variants of: B1; assay: self-cleavage kobs at 2500 uM GlcN6P; higher = faster cleavage; RNA array
Summary of the method: as §1

glucosamine-6-phosphate [5] = variants of: B1; assay: self-cleavage kobs at 10000 uM GlcN6P; higher = faster cleavage; RNA array
Summary of the method: as §1

| Variant | self-cleavage kobs at 160 uM GlcN6P (glucosamine-6-phosphate [1]) [s⁻¹] | self-cleavage kobs at 640 uM GlcN6P (glucosamine-6-phosphate [2]) [s⁻¹] | self-cleavage kobs at 40 uM GlcN6P (glucosamine-6-phosphate [3]) [s⁻¹] | self-cleavage kobs at 2500 uM GlcN6P (glucosamine-6-phosphate [4]) [s⁻¹] | self-cleavage kobs at 10000 uM GlcN6P (glucosamine-6-phosphate [5]) [s⁻¹] |
| --- | --- | --- | --- | --- | --- |
| C16U A33G C34A A39G | < 1e-05 | < 1e-05 | – | – | – |
| A33C G63C | < 1e-05 | – | < 1e-05 | < 1e-05 | < 1e-05 |
| A6G A36U G41A U47A C67G | < 1e-05 | < 1e-05 | – | < 1e-05 | – |
| G40C G63A | < 1e-05 | < 1e-05 | – | < 1e-05 | < 1e-05 |
| C34U G41C G66U | < 1e-05 | < 1e-05 | – | < 1e-05 | – |
| G29C G43C C70G | < 1e-05 | < 1e-05 | – | – | – |
| G38A G44C U47A | – | – | < 1e-05 | – | < 1e-05 |
| G35A G63A | < 1e-05 | – | – | – | < 1e-05 |
| A12C U65G | 0.000115 ± 2.1e-05 | 0.000543 ± 8.2e-05 | – | 0.00157 ± 0.00024 | – |
| C34A G44A | < 1e-05 | < 1e-05 | < 1e-05 | < 1e-05 | < 1e-05 |
| C10A U30G | < 1e-05 | – | < 1e-05 | – | – |
| C10G C34G G38A U47A | < 1e-05 | – | – | – | – |
| G7C A33C G59A | < 1e-05 | – | – | – | – |
| A6U G29A U54G | < 1e-05 | – | – | – | – |
| G32C U47A G62C A64G | < 1e-05 | < 1e-05 | – | < 1e-05 | – |
| A6C U47C U54A G59A C70U | – | – | < 1e-05 | – | – |
| U30C G62A C68G | < 1e-05 | < 1e-05 | – | < 1e-05 | < 1e-05 |
| C8U G59U G63C | < 1e-05 | < 1e-05 | – | < 1e-05 | – |
| C50A C58U C61U G63U | – | – | < 1e-05 | – | – |
| G26U C70U | 0.00126 ± 0.00046 | – | 0.000967 ± 0.00041 | 0.000552 ± 0.0002 | – |
| G32A A33C C68G C71G | – | – | 5.72e-05 ± 1.6e-05 | – | 8.64e-05 ± 2e-05 |
| A42C U65C | < 1e-05 | < 1e-05 | < 1e-05 | < 1e-05 | < 1e-05 |
| G35A G38A A39G G63C C67U | < 1e-05 | – | – | – | – |
| G7U U54G C70G C71U | – | – | 7.3e-05 ± 2.8e-05 | – | 5.65e-05 ± 2.5e-05 |
| C61U C67U | < 1e-05 | < 1e-05 | – | – | – |
| U30C A36G C67A | < 1e-05 | – | – | < 1e-05 | – |

| Variant | self-cleavage kobs at 160 uM GlcN6P (glucosamine-6-phosphate [1]) [s⁻¹] | self-cleavage kobs at 640 uM GlcN6P (glucosamine-6-phosphate [2]) [s⁻¹] | self-cleavage kobs at 40 uM GlcN6P (glucosamine-6-phosphate [3]) [s⁻¹] | self-cleavage kobs at 2500 uM GlcN6P (glucosamine-6-phosphate [4]) [s⁻¹] | self-cleavage kobs at 10000 uM GlcN6P (glucosamine-6-phosphate [5]) [s⁻¹] |
| --- | --- | --- | --- | --- | --- |
| A33U C34U G60U | – | – | < 1e-05 | – | – |
| A33U G63C | < 1e-05 | < 1e-05 | – | < 1e-05 | < 1e-05 |
| A6C C34U U56C | < 1e-05 | – | – | – | – |
| C8G U46C A53C | < 1e-05 | – | – | < 1e-05 | – |
| A12G G40U G62C | < 1e-05 | < 1e-05 | – | < 1e-05 | – |
| A15C A33C C50G C61G | – | – | 0.000147 ± 3.9e-05 | – | 0.000196 ± 3.4e-05 |
| G43C U56A | < 1e-05 | < 1e-05 | – | < 1e-05 | < 1e-05 |
| U45A U57C | 3.83e-05 ± 1.6e-05 | 3.94e-05 ± 8.9e-06 | – | 0.000268 ± 4.2e-05 | 0.000355 ± 4.8e-05 |
| C16U U31A G43U A52U | < 1e-05 | < 1e-05 | – | < 1e-05 | – |
| A39U G51U G62U C71A | < 1e-05 | – | – | < 1e-05 | – |
| G9A U31C G51U G59U C68G | < 1e-05 | – | – | – | – |
| A6C G7C C11G U55G | – | – | < 1e-05 | – | < 1e-05 |
| A15U G38U G59U | < 1e-05 | – | – | – | – |
| U2C G9U U56A C71U | < 1e-05 | < 1e-05 | – | – | – |
| G43A U49C G66A C70G | < 1e-05 | < 1e-05 | – | < 1e-05 | – |
| U45C A48U U65G | < 1e-05 | – | – | – | – |
| C10A U56C | < 1e-05 | < 1e-05 | – | < 1e-05 | – |
| A14U A36C A64U | < 1e-05 | < 1e-05 | – | – | < 1e-05 |
| G38U G44C U56C U57G C70U | < 1e-05 | – | – | < 1e-05 | – |
| A48U U49A | < 1e-05 | < 1e-05 | < 1e-05 | – | – |
| G13U C16U C19A G40U | < 1e-05 | < 1e-05 | < 1e-05 | – | < 1e-05 |
| G32U G35A U57C | < 1e-05 | – | < 1e-05 | – | – |
| A33C C34G | < 1e-05 | – | – | – | – |
| G51U C61U | < 1e-05 | < 1e-05 | – | < 1e-05 | < 1e-05 |
| G7U U30G | < 1e-05 | – | < 1e-05 | – | < 1e-05 |
